Measurements reported in patent US20130005646A1 (Novo Nordisk, published 2013).
Starred links: 1 amine or outer side, 2 acyl side, 3 side chain; linkers in the order of their positions; H or OH if unused. Positions of bridges follow the written chain, without caps; N, C: chain ends. *: point of attachment. C20 diacid = O=C(O)CCCCCCCCCCCCCCCCCCC(=O)*; γGlu = O=C(O)[C@H](CCC(=O)[*:2])N[*:1]

T1: human amylin 3(a) receptor (human calcitonin receptor + RAMP-3) (human, UniProt P30988 25-474; O60896 24-148)
T1 sequence (looked up) 1: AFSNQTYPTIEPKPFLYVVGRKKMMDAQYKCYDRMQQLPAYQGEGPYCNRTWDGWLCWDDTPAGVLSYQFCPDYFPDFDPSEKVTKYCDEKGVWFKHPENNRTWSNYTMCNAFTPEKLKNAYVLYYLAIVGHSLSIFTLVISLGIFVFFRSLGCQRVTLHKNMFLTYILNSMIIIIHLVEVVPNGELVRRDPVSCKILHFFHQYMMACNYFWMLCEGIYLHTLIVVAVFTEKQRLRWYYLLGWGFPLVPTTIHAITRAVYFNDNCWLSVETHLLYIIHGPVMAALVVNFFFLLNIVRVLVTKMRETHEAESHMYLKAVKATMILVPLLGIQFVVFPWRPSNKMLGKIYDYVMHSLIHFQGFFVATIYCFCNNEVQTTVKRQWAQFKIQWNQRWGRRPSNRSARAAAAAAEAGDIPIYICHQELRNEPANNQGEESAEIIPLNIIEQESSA
T1 sequence (looked up) 2: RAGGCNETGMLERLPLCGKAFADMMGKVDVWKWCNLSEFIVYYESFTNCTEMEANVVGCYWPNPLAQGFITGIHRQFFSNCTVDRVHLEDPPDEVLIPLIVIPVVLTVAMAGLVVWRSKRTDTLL

T2: human calcitonin (a) receptor (human, UniProt P30988 25-474)
T2 sequence (looked up): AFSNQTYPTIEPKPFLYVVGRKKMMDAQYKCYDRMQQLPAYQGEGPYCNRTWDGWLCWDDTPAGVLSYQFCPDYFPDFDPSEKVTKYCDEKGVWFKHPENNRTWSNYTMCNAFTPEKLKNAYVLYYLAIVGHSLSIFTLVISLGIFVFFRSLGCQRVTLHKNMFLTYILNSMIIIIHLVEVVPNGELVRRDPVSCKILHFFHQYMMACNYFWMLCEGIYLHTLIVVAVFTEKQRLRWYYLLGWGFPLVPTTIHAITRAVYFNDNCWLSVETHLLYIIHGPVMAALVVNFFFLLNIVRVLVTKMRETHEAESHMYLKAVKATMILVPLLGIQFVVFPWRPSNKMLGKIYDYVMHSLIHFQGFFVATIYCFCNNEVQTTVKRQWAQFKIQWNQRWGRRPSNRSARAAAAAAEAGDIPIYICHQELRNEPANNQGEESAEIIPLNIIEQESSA


How the values were obtained:
[1] = biological target: T1, human amylin 3(a) receptor (human …); assay: cell-based or functional assay
[2] = biological target: T2, human calcitonin (a) receptor; assay: cell-based or functional assay

| Amylin receptor human EC50 [1] [nM] | CTa receptor human EC50 [2] [nM] | Binder |
| --- | --- | --- |
| 0.232 | 1.13 | {C20 diacid-γGlu}-ERECNTATCATQRLAEFLRHSSQNFGPILPPTNVGSNTP-NH2 (disulfide 4-9; SMILES CC[C@H](C)[C@H](NC(=O)[C@@H]1CCCN1C(=O)CNC(=O)[C@H](Cc1ccccc1)NC(=O)[C@H](CC(N)=O)NC(=O)[C@H](CCC(N)=O)NC(=O)[C@H](CO)NC(=O)[C@H](CO)NC(=O)[C@H](Cc1c[nH]cn1)NC(=O)[C@H](CCCNC(=N)N)NC(=O)[C@H](CC(C)C)NC(=O)[C@H](Cc1ccccc1)NC(=O)[C@H](CCC(=O)O)NC(=O)[C@H](C)NC(=O)[C@H](CC(C)C)NC(=O)[C@H](CCCNC(=N)N)NC(=O)[C@H](CCC(N)=O)NC(=O)[C@@H](NC(=O)[C@H](C)NC(=O)[C@@H]1CSSC[C@H](NC(=O)[C@H](CCC(=O)O)NC(=O)[C@H](CCCNC(=N)N)NC(=O)[C@H](CCC(=O)O)NC(=O)CC[C@H](NC(=O)CCCCCCCCCCCCCCCCCCC(=O)O)C(=O)O)C(=O)N[C@@H](CC(N)=O)C(=O)N[C@@H]([C@@H](C)O)C(=O)N[C@@H](C)C(=O)N[C@@H]([C@@H](C)O)C(=O)N1)[C@@H](C)O)C(=O)N[C@@H](CC(C)C)C(=O)N1CCC[C@H]1C(=O)N1CCC[C@H]1C(=O)N[C@H](C(=O)N[C@@H](CC(N)=O)C(=O)N[C@H](C(=O)NCC(=O)N[C@@H](CO)C(=O)N[C@@H](CC(N)=O)C(=O)N[C@H](C(=O)N1CCC[C@H]1C(N)=O)[C@@H](C)O)C(C)C)[C@@H](C)O) |
| 0.313 | 0.526 | {C20 diacid-γGlu}-EERCNTATCATQRLAEFLRHSSNNFGPILPPTNVGSNTP-NH2 (disulfide 4-9; SMILES CC[C@H](C)[C@H](NC(=O)[C@@H]1CCCN1C(=O)CNC(=O)[C@H](Cc1ccccc1)NC(=O)[C@H](CC(N)=O)NC(=O)[C@H](CC(N)=O)NC(=O)[C@H](CO)NC(=O)[C@H](CO)NC(=O)[C@H](Cc1c[nH]cn1)NC(=O)[C@H](CCCNC(=N)N)NC(=O)[C@H](CC(C)C)NC(=O)[C@H](Cc1ccccc1)NC(=O)[C@H](CCC(=O)O)NC(=O)[C@H](C)NC(=O)[C@H](CC(C)C)NC(=O)[C@H](CCCNC(=N)N)NC(=O)[C@H](CCC(N)=O)NC(=O)[C@@H](NC(=O)[C@H](C)NC(=O)[C@@H]1CSSC[C@H](NC(=O)[C@H](CCCNC(=N)N)NC(=O)[C@H](CCC(=O)O)NC(=O)[C@H](CCC(=O)O)NC(=O)CC[C@H](NC(=O)CCCCCCCCCCCCCCCCCCC(=O)O)C(=O)O)C(=O)N[C@@H](CC(N)=O)C(=O)N[C@@H]([C@@H](C)O)C(=O)N[C@@H](C)C(=O)N[C@@H]([C@@H](C)O)C(=O)N1)[C@@H](C)O)C(=O)N[C@@H](CC(C)C)C(=O)N1CCC[C@H]1C(=O)N1CCC[C@H]1C(=O)N[C@H](C(=O)N[C@@H](CC(N)=O)C(=O)N[C@H](C(=O)NCC(=O)N[C@@H](CO)C(=O)N[C@@H](CC(N)=O)C(=O)N[C@H](C(=O)N1CCC[C@H]1C(N)=O)[C@@H](C)O)C(C)C)[C@@H](C)O) |
| 0.465 | 0.547 | {C20 diacid-γGlu}-EERCNTATCATQRLAEFLRHSSQNFGPILPPTNVGSNTP-NH2 (disulfide 4-9; SMILES CC[C@H](C)[C@H](NC(=O)[C@@H]1CCCN1C(=O)CNC(=O)[C@H](Cc1ccccc1)NC(=O)[C@H](CC(N)=O)NC(=O)[C@H](CCC(N)=O)NC(=O)[C@H](CO)NC(=O)[C@H](CO)NC(=O)[C@H](Cc1c[nH]cn1)NC(=O)[C@H](CCCNC(=N)N)NC(=O)[C@H](CC(C)C)NC(=O)[C@H](Cc1ccccc1)NC(=O)[C@H](CCC(=O)O)NC(=O)[C@H](C)NC(=O)[C@H](CC(C)C)NC(=O)[C@H](CCCNC(=N)N)NC(=O)[C@H](CCC(N)=O)NC(=O)[C@@H](NC(=O)[C@H](C)NC(=O)[C@@H]1CSSC[C@H](NC(=O)[C@H](CCCNC(=N)N)NC(=O)[C@H](CCC(=O)O)NC(=O)[C@H](CCC(=O)O)NC(=O)CC[C@H](NC(=O)CCCCCCCCCCCCCCCCCCC(=O)O)C(=O)O)C(=O)N[C@@H](CC(N)=O)C(=O)N[C@@H]([C@@H](C)O)C(=O)N[C@@H](C)C(=O)N[C@@H]([C@@H](C)O)C(=O)N1)[C@@H](C)O)C(=O)N[C@@H](CC(C)C)C(=O)N1CCC[C@H]1C(=O)N1CCC[C@H]1C(=O)N[C@H](C(=O)N[C@@H](CC(N)=O)C(=O)N[C@H](C(=O)NCC(=O)N[C@@H](CO)C(=O)N[C@@H](CC(N)=O)C(=O)N[C@H](C(=O)N1CCC[C@H]1C(N)=O)[C@@H](C)O)C(C)C)[C@@H](C)O) |
| 0.066 | 0.168 | {C20 diacid-γGlu}-ERCNTATCATQRLAEFLRHSSNNFGPILPPTNVGSNTP-NH2 (disulfide 3-8; SMILES CC[C@H](C)[C@H](NC(=O)[C@@H]1CCCN1C(=O)CNC(=O)[C@H](Cc1ccccc1)NC(=O)[C@H](CC(N)=O)NC(=O)[C@H](CC(N)=O)NC(=O)[C@H](CO)NC(=O)[C@H](CO)NC(=O)[C@H](Cc1c[nH]cn1)NC(=O)[C@H](CCCNC(=N)N)NC(=O)[C@H](CC(C)C)NC(=O)[C@H](Cc1ccccc1)NC(=O)[C@H](CCC(=O)O)NC(=O)[C@H](C)NC(=O)[C@H](CC(C)C)NC(=O)[C@H](CCCNC(=N)N)NC(=O)[C@H](CCC(N)=O)NC(=O)[C@@H](NC(=O)[C@H](C)NC(=O)[C@@H]1CSSC[C@H](NC(=O)[C@H](CCCNC(=N)N)NC(=O)[C@H](CCC(=O)O)NC(=O)CC[C@H](NC(=O)CCCCCCCCCCCCCCCCCCC(=O)O)C(=O)O)C(=O)N[C@@H](CC(N)=O)C(=O)N[C@@H]([C@@H](C)O)C(=O)N[C@@H](C)C(=O)N[C@@H]([C@@H](C)O)C(=O)N1)[C@@H](C)O)C(=O)N[C@@H](CC(C)C)C(=O)N1CCC[C@H]1C(=O)N1CCC[C@H]1C(=O)N[C@H](C(=O)N[C@@H](CC(N)=O)C(=O)N[C@H](C(=O)NCC(=O)N[C@@H](CO)C(=O)N[C@@H](CC(N)=O)C(=O)N[C@H](C(=O)N1CCC[C@H]1C(N)=O)[C@@H](C)O)C(C)C)[C@@H](C)O) |
| 1.13 | 1.19 | {C20 diacid-γGlu}-EERCNTATCATQRLAEFLRHSSQNFGPILPPTNVGSQTP-NH2 (disulfide 4-9; SMILES CC[C@H](C)[C@H](NC(=O)[C@@H]1CCCN1C(=O)CNC(=O)[C@H](Cc1ccccc1)NC(=O)[C@H](CC(N)=O)NC(=O)[C@H](CCC(N)=O)NC(=O)[C@H](CO)NC(=O)[C@H](CO)NC(=O)[C@H](Cc1c[nH]cn1)NC(=O)[C@H](CCCNC(=N)N)NC(=O)[C@H](CC(C)C)NC(=O)[C@H](Cc1ccccc1)NC(=O)[C@H](CCC(=O)O)NC(=O)[C@H](C)NC(=O)[C@H](CC(C)C)NC(=O)[C@H](CCCNC(=N)N)NC(=O)[C@H](CCC(N)=O)NC(=O)[C@@H](NC(=O)[C@H](C)NC(=O)[C@@H]1CSSC[C@H](NC(=O)[C@H](CCCNC(=N)N)NC(=O)[C@H](CCC(=O)O)NC(=O)[C@H](CCC(=O)O)NC(=O)CC[C@H](NC(=O)CCCCCCCCCCCCCCCCCCC(=O)O)C(=O)O)C(=O)N[C@@H](CC(N)=O)C(=O)N[C@@H]([C@@H](C)O)C(=O)N[C@@H](C)C(=O)N[C@@H]([C@@H](C)O)C(=O)N1)[C@@H](C)O)C(=O)N[C@@H](CC(C)C)C(=O)N1CCC[C@H]1C(=O)N1CCC[C@H]1C(=O)N[C@H](C(=O)N[C@@H](CC(N)=O)C(=O)N[C@H](C(=O)NCC(=O)N[C@@H](CO)C(=O)N[C@@H](CCC(N)=O)C(=O)N[C@H](C(=O)N1CCC[C@H]1C(N)=O)[C@@H](C)O)C(C)C)[C@@H](C)O) |
| 0.053 | 0.057 | {C20 diacid-γGlu}-KCNTATCATQRLANFLRHSSNNFGPILPPTNVGSNTP-NH2 (disulfide 2-7; SMILES CC[C@H](C)[C@H](NC(=O)[C@@H]1CCCN1C(=O)CNC(=O)[C@H](Cc1ccccc1)NC(=O)[C@H](CC(N)=O)NC(=O)[C@H](CC(N)=O)NC(=O)[C@H](CO)NC(=O)[C@H](CO)NC(=O)[C@H](Cc1c[nH]cn1)NC(=O)[C@H](CCCNC(=N)N)NC(=O)[C@H](CC(C)C)NC(=O)[C@H](Cc1ccccc1)NC(=O)[C@H](CC(N)=O)NC(=O)[C@H](C)NC(=O)[C@H](CC(C)C)NC(=O)[C@H](CCCNC(=N)N)NC(=O)[C@H](CCC(N)=O)NC(=O)[C@@H](NC(=O)[C@H](C)NC(=O)[C@@H]1CSSC[C@H](NC(=O)[C@H](CCCCN)NC(=O)CC[C@H](NC(=O)CCCCCCCCCCCCCCCCCCC(=O)O)C(=O)O)C(=O)N[C@@H](CC(N)=O)C(=O)N[C@@H]([C@@H](C)O)C(=O)N[C@@H](C)C(=O)N[C@@H]([C@@H](C)O)C(=O)N1)[C@@H](C)O)C(=O)N[C@@H](CC(C)C)C(=O)N1CCC[C@H]1C(=O)N1CCC[C@H]1C(=O)N[C@H](C(=O)N[C@@H](CC(N)=O)C(=O)N[C@H](C(=O)NCC(=O)N[C@@H](CO)C(=O)N[C@@H](CC(N)=O)C(=O)N[C@H](C(=O)N1CCC[C@H]1C(N)=O)[C@@H](C)O)C(C)C)[C@@H](C)O) [N-alpha-[(S)-4-Carboxy-4-(19-carboxynonadecanoylamino)butyryl]-[Arg17,Pro37]-pramlintide] |
